System: K4 kissing-loop RNA reporter
Assay: apparent KD of K4 kissing-loop reporter; higher = weaker reporter binding
Details: Eterna round: R107
Procedure: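 RNA-MaP round R107: designed RNA switches with theophylline, tryptophan, arginine or FMN aptamers are transcribed on-chip within common flanks. They are titrated with a labelled K4 kissing-loop RNA reporter in RNA-MaP buffer (100 mM Tris pH 7.5, 80 mM KCl, 4 mM MgCl2), without ligand or with the indicated ligand. Median apparent KD per design.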

[1] = input ligand: theophylline 20 uM
[2] = input ligand: tryptophan 2.4 mM
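Note: bound reporter read as fluorescence of individual clusters on recovered sequencing chips by microscopy, with normalized cluster intensities fitted with a binding model.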

## GAUGAAGAGUCGUUAGUUAGGGCUUUCGAUACCAGCGCCCGUCCACGCCCUUGGCAGCGAUUGAAAGAGUGAUGUUCUGUCAGGA [theeternabot_exclusion_KL_Theo_A_31]
Input ligand: FMN 200 uM
  apparent KD of K4 kissing-loop reporter: 578 nM
Input ligand: arginine 13.2 mM
  apparent KD of K4 kissing-loop reporter: 309 nM
Input ligand: none
  apparent KD of K4 kissing-loop reporter: 546 nM
[1]
  apparent KD of K4 kissing-loop reporter: 741 nM
[2]
  apparent KD of K4 kissing-loop reporter: 289 nM

## CGGACGGUAUCGGCCGCCACUCUGAAGACAGUGAUGUUGUCCGUGCAGUAUUUAGGAAAGCCGCGGAGGACCGGGAUGCGUCACU [theeternabot_sameState_KL_Trp_B_48]
Input ligand: FMN 200 uM
  apparent KD of K4 kissing-loop reporter: 374 nM
Input ligand: arginine 13.2 mM
  apparent KD of K4 kissing-loop reporter: 150 nM
Input ligand: none
  apparent KD of K4 kissing-loop reporter: 232 nM
[1]
  apparent KD of K4 kissing-loop reporter: 253 nM
[2]
  apparent KD of K4 kissing-loop reporter: 340 nM

## UGUGGAGAAUAUGAUACCAGCAGUGAGAGAGAGGAAGUAUAGUGAUGUUAUAUGAGAGAAUGCCCUUGGCAGCAUAUGUAGUAGG [SSTheophylB.G]
Input ligand: FMN 200 uM
  apparent KD of K4 kissing-loop reporter: 209 nM
Input ligand: arginine 13.2 mM
  apparent KD of K4 kissing-loop reporter: 162 nM
Input ligand: none
  apparent KD of K4 kissing-loop reporter: 207 nM
[1]
  apparent KD of K4 kissing-loop reporter: 208 nM
[2]
  apparent KD of K4 kissing-loop reporter: 188 nM

## AACCGAGGUAAUCCACAAAGAUAACAUGAUACCAGAUAUAUAAAUAUCCCUUGGCAGCAUGGCAUGAGUGAUGUUCAUGUGUCUU [KL-SSTheo-A10]
Input ligand: FMN 200 uM
  apparent KD of K4 kissing-loop reporter: 441 nM
Input ligand: arginine 13.2 mM
  apparent KD of K4 kissing-loop reporter: 325 nM
Input ligand: none
  apparent KD of K4 kissing-loop reporter: 460 nM
[1]
  apparent KD of K4 kissing-loop reporter: 269 nM
[2]
  apparent KD of K4 kissing-loop reporter: 356 nM

## AGGUGCUACGGAAGGAGCGCACCAGUGAUGUUGGUGUGUGACCGUGACAUGGCAGUCAAGGUGCAGGUAGGUCGCCGUGGCCAUA [Rigela]
Input ligand: FMN 200 uM
  apparent KD of K4 kissing-loop reporter: 138 nM
Input ligand: arginine 13.2 mM
  apparent KD of K4 kissing-loop reporter: 135 nM
Input ligand: none
  apparent KD of K4 kissing-loop reporter: 140 nM
[1]
  apparent KD of K4 kissing-loop reporter: 156 nM
[2]
  apparent KD of K4 kissing-loop reporter: 136 nM

## UGGAGUUGACGAAAAGUCAACUCCUGAGAUACCAGUGACGAAAGUCACCCUUGGCAGCUCACUGGCAGUGAUGUUGCACGAUAAA [KL-SSTheo-A1]
Input ligand: FMN 200 uM
  apparent KD of K4 kissing-loop reporter: 123 nM
Input ligand: arginine 13.2 mM
  apparent KD of K4 kissing-loop reporter: 66.1 nM
Input ligand: none
  apparent KD of K4 kissing-loop reporter: 80 nM
[1]
  apparent KD of K4 kissing-loop reporter: 181 nM
[2]
  apparent KD of K4 kissing-loop reporter: 101 nM

## AUGCGCGUGCGAUGAAAAUCGCACGCGCAUCGAGGACCGGUACGGCCGCCACUCGCUCGCGCCGAGUGAUGUUCGGCCGGCGAAC [#2 Same State - Tryptophan A Attempt #4 (HarryS)]
Input ligand: FMN 200 uM
  apparent KD of K4 kissing-loop reporter: 278 nM
Input ligand: arginine 13.2 mM
  apparent KD of K4 kissing-loop reporter: 268 nM
Input ligand: none
  apparent KD of K4 kissing-loop reporter: 267 nM
[1]
  apparent KD of K4 kissing-loop reporter: 217 nM
[2]
  apparent KD of K4 kissing-loop reporter: 506 nM

## UUGAGUGAUGUUCAAUUAAUGUGCAACGAUACCAGCUCAUAUGCUAGCCCUUGGCAGCGUGGUAACGUAAUUUUAUCAAAUGAUA [theeternabot_exclusion_KL_Theo_A_39]
Input ligand: FMN 200 uM
  apparent KD of K4 kissing-loop reporter: 232 nM
Input ligand: arginine 13.2 mM
  apparent KD of K4 kissing-loop reporter: 199 nM
Input ligand: none
  apparent KD of K4 kissing-loop reporter: 198 nM
[1]
  apparent KD of K4 kissing-loop reporter: 205 nM
[2]
  apparent KD of K4 kissing-loop reporter: 145 nM

## GUGCGCGCGGCGGCCGCCACUCGCAUGAGAGUGAUGUUCUCACCGUGACCGUAAGGUCGCGGUGUGAGGACCGGGCCGGGCUGCG [#2 Same State - Tryptophan B Attempt #24 (HarryS)]
Input ligand: FMN 200 uM
  apparent KD of K4 kissing-loop reporter: 181 nM
Input ligand: arginine 13.2 mM
  apparent KD of K4 kissing-loop reporter: 114 nM
Input ligand: none
  apparent KD of K4 kissing-loop reporter: 207 nM
[1]
  apparent KD of K4 kissing-loop reporter: 59.5 nM
[2]
  apparent KD of K4 kissing-loop reporter: 270 nM

## GGUAGCAUGAUGGAUACCAGUCCAAAUGGAGUGAUGUUCCAACAACAGGUUAGGCUGCUGGACCCUUGGCAGCCGUCAUGCUACC
Input ligand: FMN 200 uM
  apparent KD of K4 kissing-loop reporter: 141 nM
Input ligand: arginine 13.2 mM
  apparent KD of K4 kissing-loop reporter: 120 nM
Input ligand: none
  apparent KD of K4 kissing-loop reporter: 160 nM
[1]
  apparent KD of K4 kissing-loop reporter: 121 nM
[2]
  apparent KD of K4 kissing-loop reporter: 133 nM

## UCCUGCAAUCGCCCACGAAAGUGGAUCGAUACCAGAGUCGAAAGACUCCCUUGGCAGCGAGUGAUGUUCGAAGCAGGUAAAUAAA
Input ligand: FMN 200 uM
  apparent KD of K4 kissing-loop reporter: 771 nM
Input ligand: arginine 13.2 mM
  apparent KD of K4 kissing-loop reporter: 612 nM
Input ligand: none
  apparent KD of K4 kissing-loop reporter: 765 nM
[1]
  apparent KD of K4 kissing-loop reporter: 605 nM
[2]
  apparent KD of K4 kissing-loop reporter: 637 nM

## AACUUGUUUGGAGGAUAUUCUUUAUUCGACAUAACCUUCUAUAAGGUGCAGUGAUGUUGCAAUAUAGGAGAAGGUCGAGUGAGAA [Exclusion FMN B Gf 16]
Input ligand: FMN 200 uM
  apparent KD of K4 kissing-loop reporter: 207 nM
Input ligand: arginine 13.2 mM
  apparent KD of K4 kissing-loop reporter: 169 nM
Input ligand: none
  apparent KD of K4 kissing-loop reporter: 206 nM
[1]
  apparent KD of K4 kissing-loop reporter: 219 nM
[2]
  apparent KD of K4 kissing-loop reporter: 186 nM
